Laboratory results: paper PMC3540207 (Nature structural & molecular biology, 2012)

Target: ATG3 (human, recombinant) (human, UniProt Q9NT62 1-314)
Assay: ITC

ATG3 (human, recombinant), sequence (Q9NT62 whole entry): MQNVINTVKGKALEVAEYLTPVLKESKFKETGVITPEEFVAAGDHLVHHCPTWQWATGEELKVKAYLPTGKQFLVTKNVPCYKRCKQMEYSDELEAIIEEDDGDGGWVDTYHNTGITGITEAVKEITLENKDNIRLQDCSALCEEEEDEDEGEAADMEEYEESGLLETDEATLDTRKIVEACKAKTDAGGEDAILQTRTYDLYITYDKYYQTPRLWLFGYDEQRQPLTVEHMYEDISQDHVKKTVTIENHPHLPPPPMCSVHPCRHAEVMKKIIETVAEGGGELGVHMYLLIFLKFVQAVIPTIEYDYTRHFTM

Kd: 117 nM
B1: unconjugated ATG12 (human, recombinant) (natural protein, UniProt O94817 1-140, looked up)
chain: MAEEPQSVLQLPTSIAAGGEGLTDVSPETTTPEPPSSAAVSPGTEEPAGDTKKKIDILLKAVGDTPIMKTKKWAVERTRTIQGLIDFIKKFLKLVASEQLFIYVNQSFAPSPDQEVGTLYECFGSDGKLVLHYCKSQAWG
